Test results: paper PMC3013631

Target: Irgb6 (mouse (endogenous in macrophages)) (UniProt Q62293)
Assay: co-IP

Chain of UniProt Q62293 (Q62293 whole entry): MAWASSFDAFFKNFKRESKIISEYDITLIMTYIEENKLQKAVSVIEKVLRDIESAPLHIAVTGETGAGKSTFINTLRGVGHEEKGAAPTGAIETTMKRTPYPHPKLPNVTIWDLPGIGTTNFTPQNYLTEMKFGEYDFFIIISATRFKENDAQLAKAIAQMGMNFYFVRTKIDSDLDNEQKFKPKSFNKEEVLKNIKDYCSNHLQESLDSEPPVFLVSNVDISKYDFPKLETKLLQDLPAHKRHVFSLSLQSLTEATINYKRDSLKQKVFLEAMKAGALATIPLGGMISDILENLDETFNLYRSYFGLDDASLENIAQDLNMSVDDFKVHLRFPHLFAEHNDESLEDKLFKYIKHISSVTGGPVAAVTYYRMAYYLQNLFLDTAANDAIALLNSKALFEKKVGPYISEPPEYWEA

In the case of “kinase-dead ROP18 D/A (Ty-tagged; expressed in transgenic type III parasites) (from UniProt Q2PAY2 1-554) (enzyme)”, the fold change of co-precipitated ROP18 against active ROP18 was 3 fold.
